Reference: publication doi:10.1101/859132 (bioRxiv, 2019)

Assays:
Experiment in all cases: pull-down
Maf1-id L318S/W319S = biological target: T1, Maf1-id L318S/W319S (S. cerevisiae, UniProt P41910 1-395, Δ64-194 | L318S | W319S)
T1 sequence (looked up): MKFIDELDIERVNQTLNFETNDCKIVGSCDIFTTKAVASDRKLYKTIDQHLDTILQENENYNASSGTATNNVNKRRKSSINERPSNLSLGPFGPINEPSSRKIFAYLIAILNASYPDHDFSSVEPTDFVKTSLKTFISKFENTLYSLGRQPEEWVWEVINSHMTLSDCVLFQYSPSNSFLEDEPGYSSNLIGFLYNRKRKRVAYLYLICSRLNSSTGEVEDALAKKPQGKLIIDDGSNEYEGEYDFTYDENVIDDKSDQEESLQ

Maf1-id T33E/T34E = biological target: T2, Maf1-id T33E/T34E (S. cerevisiae, UniProt P41910 1-395, Δ64-194 | T33E | T34E)
T2 sequence (looked up): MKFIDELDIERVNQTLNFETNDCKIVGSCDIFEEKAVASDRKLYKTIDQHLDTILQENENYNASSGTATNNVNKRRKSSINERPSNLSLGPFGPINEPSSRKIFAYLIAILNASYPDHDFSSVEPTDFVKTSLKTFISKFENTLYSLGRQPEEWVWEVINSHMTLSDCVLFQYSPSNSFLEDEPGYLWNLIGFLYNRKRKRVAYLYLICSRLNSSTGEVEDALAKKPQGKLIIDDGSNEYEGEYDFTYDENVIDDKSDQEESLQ

Maf1-id D248A/D250A = biological target: T3, Maf1-id D248A/D250A (S. cerevisiae, UniProt P41910 1-395, Δ64-194 | D248A | D250A)
T3 sequence (looked up): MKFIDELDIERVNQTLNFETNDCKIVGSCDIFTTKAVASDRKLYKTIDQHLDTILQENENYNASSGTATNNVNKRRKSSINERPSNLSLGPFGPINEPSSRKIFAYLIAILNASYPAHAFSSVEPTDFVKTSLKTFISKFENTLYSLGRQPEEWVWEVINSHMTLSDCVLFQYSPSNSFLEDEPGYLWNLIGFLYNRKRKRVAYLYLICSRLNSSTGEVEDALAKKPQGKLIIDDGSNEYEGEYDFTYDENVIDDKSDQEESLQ

Maf1-id (Maf1 Δ64-194) = biological target: T4, Maf1-id (Maf1 Δ64-194) (S. cerevisiae, UniProt P41910 1-395, Δ64-194)
T4 sequence (looked up): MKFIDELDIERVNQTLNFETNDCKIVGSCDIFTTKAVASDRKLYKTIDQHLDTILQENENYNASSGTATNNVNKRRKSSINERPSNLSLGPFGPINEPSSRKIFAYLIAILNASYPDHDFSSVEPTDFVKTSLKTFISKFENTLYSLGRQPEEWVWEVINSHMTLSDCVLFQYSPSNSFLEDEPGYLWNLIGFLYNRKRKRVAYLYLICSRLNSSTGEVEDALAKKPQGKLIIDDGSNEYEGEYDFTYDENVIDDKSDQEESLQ

binding result (Maf1-id L318S/W319S): binds | binding result (Maf1-id T33E/T34E): binds | binding result (Maf1-id D248A/D250A): binds | binding result (Maf1-id (Maf1 Δ64-194)): binds
B1: C34 1-156 (the two N-terminal C34 WH domains), His-tagged (domain or fragment, S. cerevisiae, UniProt P32910 1-156, looked up)
chain: MSGMIENGLQLSDNAKTLHSQMMSKGIGALFTQQELQKQMGIGSLTDLMSIVQELLDKNLIKLVKQNDELKFQGVLESEAQKKATMSAEEALVYSYIEASGREGIWSKTIKARTNLHQHVVLKCLKSLESQRYVKSVKSVKFPTRKIYMLYSLQPS
